From patent publication US20200407436A1 (published 2020)

How the values were obtained:
mature human TGF-beta 1 [1] = biological target: T1, mature human TGF-beta 1 (human, UniProt P01137 279-390); assay: SPR Biacore T200, human TGF-beta amine-coupled (~20 RU), E. coli derived Fab as analyte; heterogeneous fit, component 1 (kd1; believed occluded)
T1 construct: Bought recombinant protein (Peprotech); also called TGFb1; TGFB1
Experimental: (§1) Human TGF-β isoforms 1, 2, and 3 (Peprotech) were immobilised on CMS Series S chip via amine coupling chemistry on Flowcell 2, 3 and 4 (respectively) to a level of approximately 20 RU. HBS-EP buffer (10 mM HEPES pH 7.4, 0.15 M NaCl, 3 mM EDTA, 0.05% Surfactant P20, GE Healthcare) was used as the running buffer. […] The surface was regenerated by 2×10 μL injection of 10 mM HCl at a flowrate of 10 uL/min.
(§2) Background subtraction binding curves were analysed using the T200 evaluation software (version 1.0; GE Healthcare) following standard procedures. Kinetic parameters were determined using heterogeneous fitting algorithm with RI=0), as described in Example 3, and the values are provided in Table 4.

mature human TGF-beta 2 [2] = biological target: T2, mature human TGF-beta 2 (human, UniProt P61812 303-414); assay: as above
T2 construct: also called TGFb2; TGFB2
T2 sequence: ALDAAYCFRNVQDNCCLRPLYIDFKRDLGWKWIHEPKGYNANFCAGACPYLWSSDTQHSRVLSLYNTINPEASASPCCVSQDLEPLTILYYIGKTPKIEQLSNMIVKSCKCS
Experimental: as §1, §2

mature human TGF-beta 3 [3] = biological target: T3, mature human TGF-beta 3 (human, UniProt P10600 301-412); assay: as above
T3 construct: also called TGFb3; TGFB3
T3 sequence: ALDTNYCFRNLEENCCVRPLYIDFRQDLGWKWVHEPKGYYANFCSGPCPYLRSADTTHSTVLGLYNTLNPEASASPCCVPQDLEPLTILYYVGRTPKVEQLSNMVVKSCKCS
Experimental: as §1, §2

mature human TGF-beta 1 [4] = biological target: T1, mature human TGF-beta 1; assay: SPR Biacore T200, human TGF-beta amine-coupled (~20 RU), E. coli derived Fab as analyte; heterogeneous fit, component 1 (KD1; believed occluded)
Experimental: as §1, §2

mature human TGF-beta 2 [5] = biological target: T2, mature human TGF-beta 2; assay: as above
Experimental: as §1, §2

mature human TGF-beta 3 [6] = biological target: T3, mature human TGF-beta 3; assay: as above
Experimental: as §1, §2

mature human TGF-beta 1 [7] = biological target: T1, mature human TGF-beta 1; assay: SPR Biacore T200, human TGF-beta amine-coupled (~20 RU), E. coli derived Fab as analyte; heterogeneous fit, component 1 (ka1; believed occluded)
Experimental: as §1, §2

mature human TGF-beta 2 [8] = biological target: T2, mature human TGF-beta 2; assay: as above
Experimental: as §1, §2

mature human TGF-beta 3 [9] = biological target: T3, mature human TGF-beta 3; assay: as above
Experimental: as §1, §2

T1 sequence (P01137 279-390 limits assumed): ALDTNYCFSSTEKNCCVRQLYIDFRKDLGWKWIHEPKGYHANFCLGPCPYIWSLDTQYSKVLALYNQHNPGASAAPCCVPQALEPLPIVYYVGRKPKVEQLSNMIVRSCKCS

koff (mature human TGF-beta 1 [1]): 0.000709 s⁻¹
koff (mature human TGF-beta 2 [2]): 0.000211 s⁻¹
koff (mature human TGF-beta 3 [3]): 0.00146 s⁻¹
Kd (mature human TGF-beta 1 [4]): 9.48 nM
Kd (mature human TGF-beta 2 [5]): 3.67 nM
Kd (mature human TGF-beta 3 [6]): 15.7 nM
kon (mature human TGF-beta 1 [7]): 74900 M⁻¹ s⁻¹
kon (mature human TGF-beta 2 [8]): 57700 M⁻¹ s⁻¹
kon (mature human TGF-beta 3 [9]): 93200 M⁻¹ s⁻¹
B1: humanised antibody 4856 Fab graft gL3gH13 (Fab, V domains shown)
VH: EVQLVESGGGLVKPGGSLRLSCAASGFSLSSYDMSWVRQAPGKGLEWIGIIYGGSGSTWYASWAKGRFTISRDSAKNSVYLQMNSLRAEDTAVYYCARGRDAGAGGSRNGYSLWGQGTLVTVSS
VL: AYDMTQSPSTLSASVGDRVTITCQASESIYSGLAWYQQKPGKAPKLLIYAASDLASGVPSRFSGSGSGTEYTLTISSLQPDDFATYYCQQTWTDGGIDNPFGGGTKVEIKR
notes: Human gamma-1 CH1 (G1m17) and human C-kappa (K1m3); also called 4856gL3gH13
